The supplement of paper PMC10567573

B1: ZNF263 (parent)
chain: FGGNPRFLSLHRAHLGEEAHKCLE
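Further: lentivirally expressed fusions sorted by FACS into six bins by GFP to DsRed ratio, PSI derived from sequencing read proportions per bin multiplied by bin number.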

Variants of: B1
Experiment: protein stability index of a GFP-peptide fusion (GPS, HEK-293T) (PSI 1-6); higher = more stable
Conditions: c terminus: a fixed tail appended
FGGNPRFLALHRAHLGEEAHKCLE [S9A] gave a protein stability index of 1.52.
FGGNPRFLPLHRAHLGEEAHKCLE [S9P] showed a protein stability index of 2.1.
FGGNPRFLFLHRAHLGEEAHKCLE [S9F] gave a protein stability index of 2.14.
In the case of FGGNPRFLHLHRAHLGEEAHKCLE [S9H], the protein stability index is reported as 1.8.
Work on FGGNPRFLKLHRAHLGEEAHKCLE [S9K] yielded a protein stability index of 1.64.
With FGGNPRFLNLHRAHLGEEAHKCLE [S9N] the protein stability index was 1.55.
FGGNPRFLCLHRAHLGEEAHKCLE [S9C] showed a protein stability index of 2.16.
Variant FGGNPRFLYLHRAHLGEEAHKCLE [S9Y] has a protein stability index of 3.04.
FGGNPRFLLLHRAHLGEEAHKCLE [S9L] gave a protein stability index of 2.25.
Variant FGGNPRFLILHRAHLGEEAHKCLE [S9I] has a protein stability index of 2.59.
Work on FGGNPRFLTLHRAHLGEEAHKCLE [S9T] yielded a protein stability index of 1.8.
With FGGNPRFLELHRAHLGEEAHKCLE [S9E] the protein stability index was 1.97.
Variant FGGNPRFLQLHRAHLGEEAHKCLE [S9Q] has a protein stability index of 2.9.
For FGGNPRFLMLHRAHLGEEAHKCLE [S9M], the protein stability index was 1.15.
FGGNPRFLVLHRAHLGEEAHKCLE [S9V] gave a protein stability index of 1.71.
Work on FGGNPRFLRLHRAHLGEEAHKCLE [S9R] yielded a protein stability index of 1.87.
With FGGNPRFLDLHRAHLGEEAHKCLE [S9D] the protein stability index was 1.34.
FGGNPRFLSMHRAHLGEEAHKCLE [L10M] showed a protein stability index of 2.02.
Work on FGGNPRFLSPHRAHLGEEAHKCLE [L10P] yielded a protein stability index of 2.01.
For FGGNPRFLSRHRAHLGEEAHKCLE [L10R], the protein stability index was 2.69.
For FGGNPRFLSIHRAHLGEEAHKCLE [L10I], the protein stability index was 2.06.
In the case of FGGNPRFLSDHRAHLGEEAHKCLE [L10D], the protein stability index is reported as 2.47.
For FGGNPRFLSKHRAHLGEEAHKCLE [L10K], the protein stability index was 2.24.
Work on FGGNPRFLSGHRAHLGEEAHKCLE [L10G] yielded a protein stability index of 1.34.
Work on FGGNPRFLSNHRAHLGEEAHKCLE [L10N] yielded a protein stability index of 2.22.
FGGNPRFLSQHRAHLGEEAHKCLE [L10Q] gave a protein stability index of 2.
For FGGNPRFLSAHRAHLGEEAHKCLE [L10A], the protein stability index was 1.74.
In the case of FGGNPRFLSEHRAHLGEEAHKCLE [L10E], the protein stability index is reported as 2.64.
FGGNPRFLSFHRAHLGEEAHKCLE [L10F] gave a protein stability index of 1.8.
Variant FGGNPRFLSHHRAHLGEEAHKCLE [L10H] has a protein stability index of 2.17.
Work on FGGNPRPLSLHRAHLGEEAHKCLE [F7P] yielded a protein stability index of 2.71.
For FGGNPRYLSLHRAHLGEEAHKCLE [F7Y], the protein stability index was 2.04.
In the case of FGGNPRKLSLHRAHLGEEAHKCLE [F7K], the protein stability index is reported as 3.58.
With FGGNPRELSLHRAHLGEEAHKCLE [F7E] the protein stability index was 4.
With FGGNPRHLSLHRAHLGEEAHKCLE [F7H] the protein stability index was 2.56.
FGGNPRMLSLHRAHLGEEAHKCLE [F7M] gave a protein stability index of 2.42.
For FGGNPRLLSLHRAHLGEEAHKCLE [F7L], the protein stability index was 2.56.
In the case of FGGNPRDLSLHRAHLGEEAHKCLE [F7D], the protein stability index is reported as 3.51.
For FGGNPRALSLHRAHLGEEAHKCLE [F7A], the protein stability index was 2.79.
Variant FGGNPRCLSLHRAHLGEEAHKCLE [F7C] has a protein stability index of 2.31.
With FGGNPRNLSLHRAHLGEEAHKCLE [F7N] the protein stability index was 3.42.
FGGNPRSLSLHRAHLGEEAHKCLE [F7S] showed a protein stability index of 3.57.
FGGNPRRLSLHRAHLGEEAHKCLE [F7R] showed a protein stability index of 3.15.
Work on FGGNPRGLSLHRAHLGEEAHKCLE [F7G] yielded a protein stability index of 2.63.
In the case of FGGNPRTLSLHRAHLGEEAHKCLE [F7T], the protein stability index is reported as 3.22.
In the case of FGGNPRVLSLHRAHLGEEAHKCLE [F7V], the protein stability index is reported as 2.64.
In the case of FGGNPRILSLHRAHLGEEAHKCLE [F7I], the protein stability index is reported as 2.19.
For FGGNPRQLSLHRAHLGEEAHKCLE [F7Q], the protein stability index was 3.49.
With FGGNPRFMSLHRAHLGEEAHKCLE [L8M] the protein stability index was 2.25.
FGGNPRFCSLHRAHLGEEAHKCLE [L8C] showed a protein stability index of 1.4.
Variant FGGNPRFESLHRAHLGEEAHKCLE [L8E] has a protein stability index of 2.54.
Work on FGGNPRFISLHRAHLGEEAHKCLE [L8I] yielded a protein stability index of 1.41.
In the case of FGGNPRFTSLHRAHLGEEAHKCLE [L8T], the protein stability index is reported as 2.77.
FGGNPRFSSLHRAHLGEEAHKCLE [L8S] gave a protein stability index of 2.03.
FGGNPRFPSLHRAHLGEEAHKCLE [L8P] gave a protein stability index of 2.01.
With FGGNPRFVSLHRAHLGEEAHKCLE [L8V] the protein stability index was 2.5.
FGGNPRFNSLHRAHLGEEAHKCLE [L8N] gave a protein stability index of 2.25.
Work on FGGNPRFRSLHRAHLGEEAHKCLE [L8R] yielded a protein stability index of 2.27.
Variant FGGNPRFASLHRAHLGEEAHKCLE [L8A] has a protein stability index of 2.43.
Variant FGGNPRFKSLHRAHLGEEAHKCLE [L8K] has a protein stability index of 2.53.
In the case of FGGNPRFQSLHRAHLGEEAHKCLE [L8Q], the protein stability index is reported as 1.66.
Variant FGGNPRFYSLHRAHLGEEAHKCLE [L8Y] has a protein stability index of 3.2.
FGGNPRFDSLHRAHLGEEAHKCLE [L8D] gave a protein stability index of 3.1.
FGGNPRFFSLHRAHLGEEAHKCLE [L8F] showed a protein stability index of 2.16.
FGGNPRFGSLHRAHLGEEAHKCLE [L8G] gave a protein stability index of 2.1.
With FGGNPRFWSLHRAHLGEEAHKCLE [L8W] the protein stability index was 3.8.
FGGNPRFHSLHRAHLGEEAHKCLE [L8H] showed a protein stability index of 1.86.
For FGGNNRFLSLHRAHLGEEAHKCLE [P5N], the protein stability index was 3.16.
FGGNTRFLSLHRAHLGEEAHKCLE [P5T] gave a protein stability index of 2.17.
Variant FGGNQRFLSLHRAHLGEEAHKCLE [P5Q] has a protein stability index of 2.2.
Variant FGGNRRFLSLHRAHLGEEAHKCLE [P5R] has a protein stability index of 2.01.
FGGNVRFLSLHRAHLGEEAHKCLE [P5V] showed a protein stability index of 1.96.
In the case of FGGNSRFLSLHRAHLGEEAHKCLE [P5S], the protein stability index is reported as 1.93.
Work on FGGNWRFLSLHRAHLGEEAHKCLE [P5W] yielded a protein stability index of 1.96.
In the case of FGGNMRFLSLHRAHLGEEAHKCLE [P5M], the protein stability index is reported as 1.96.
Work on FGGNYRFLSLHRAHLGEEAHKCLE [P5Y] yielded a protein stability index of 1.57.
For FGGNPLFLSLHRAHLGEEAHKCLE [R6L], the protein stability index was 2.62.
With FGGNPTFLSLHRAHLGEEAHKCLE [R6T] the protein stability index was 2.89.
FGGNPMFLSLHRAHLGEEAHKCLE [R6M] gave a protein stability index of 2.5.
In the case of FGGNPGFLSLHRAHLGEEAHKCLE [R6G], the protein stability index is reported as 1.74.
In the case of FGGNPIFLSLHRAHLGEEAHKCLE [R6I], the protein stability index is reported as 2.58.
With FGGNPVFLSLHRAHLGEEAHKCLE [R6V] the protein stability index was 3.33.
Work on FGGNPCFLSLHRAHLGEEAHKCLE [R6C] yielded a protein stability index of 3.09.
In the case of FGGNPFFLSLHRAHLGEEAHKCLE [R6F], the protein stability index is reported as 2.25.
FGGNPNFLSLHRAHLGEEAHKCLE [R6N] gave a protein stability index of 1.89.
With FGGNPDFLSLHRAHLGEEAHKCLE [R6D] the protein stability index was 1.83.
FGGNPPFLSLHRAHLGEEAHKCLE [R6P] gave a protein stability index of 2.73.
FGGNPSFLSLHRAHLGEEAHKCLE [R6S] showed a protein stability index of 1.79.
FGGNPAFLSLHRAHLGEEAHKCLE [R6A] gave a protein stability index of 3.22.
Work on FGGNPEFLSLHRAHLGEEAHKCLE [R6E] yielded a protein stability index of 1.3.
In the case of FGGNPKFLSLHRAHLGEEAHKCLE [R6K], the protein stability index is reported as 2.77.
FGGNPQFLSLHRAHLGEEAHKCLE [R6Q] gave a protein stability index of 1.82.
FGGNPWFLSLHRAHLGEEAHKCLE [R6W] showed a protein stability index of 5.27.
For FGGNPHFLSLHRAHLGEEAHKCLE [R6H], the protein stability index was 2.37.
